In PMC11247618 (Immunity, 2024):

B1: hcab17 Fab (Fab, V domains shown)
VH: QVQLNQWGAGLLKPSETLSLTCAVYGDAFSGNYWSWIRQPPGKGLQWIGEINHSGNTNYDPSLESRVSISLDTSKNQLSLKLNSVTAADTALYYCARGQRNCSGGNCYSGLWAWGQGTLVTVSS
VL: AIHMTQSPFSLSASVGDRVTITCRASQGIRNDLAWYQHKPGTAPKVLIYAASSLQDGVSSRFSGSGSGTLFTLTISSLQPEDFATYYCLQGYNYPRTFGQGTKVEMK
B2: hcab55 Fab (Fab, V domains shown)
VH: QVQLVQSGAEIKKPGASVKVSCKASGYTFISNYFHWVRQAPGQGLEWMGIINPSSGSTTYGQKFQGRVTLTSDTSASIVYLELSRLRSEDTAVYYCVSPRIAHCRGGRCYETLDWGQGTLVTVSS
VL: EIVLTQSPVSLSLSPGERATLSCRASQSVSSNYLAWYQLKPGRAPRLLIYGASSRAPGIPDRFSGSGSGTDFTLTISRLEPEDFAVYYCQQYGISSWTFGQGTKVEIK
B3: hcab40 Fab (Fab, V domains shown)
VH: QVQLQQWGAGLLKPSESLSLTCVVYGGSFSGYYWSWIRQPPGKGLEWIGEINPTGSTNYNPSLNSRVTISVDRSKNHLSLKLSSVTAADTAVYFCARFLPPDYDLLTDYFDPPGAFDIWGQGTMVTVSS
VL: DIHMTQSPFSLSASVGDRVTITCRASQSISGWLAWYQQKVGNAPKLLIYKASSLESGVPSRFSGSGSGTEFTLSISSLQPDDFATYYCQQYNSYPFTFGPGTKVDMK
B4: hcab64 Fab (Fab, V domains shown)
VH: QVQLVQSGAEIQKPGASVKVSCRASGYTYISTSFHWVRQAPGQGLEWMGVIKTDDGSTSDTQKFQGRLRMTWDTSTSTVYMELSSLRSDDTAVYYCVSPRLGHCRRGRCYETLDWGQGSLVTVSS
VL: EIVLTQSPGTLSLSPGERATLSCRASQSVSSSYLAWYQQKPGQAPRLLVYGASTRATGIPDRFSGSGSGTDFTLTISRLEPEDFAVYYCHQYSSSFWTFGQGTKVEIK

target: 1b09 HCV E2 ectodomain (E2ecto) (Hepatitis C virus genotype 1b, strain …, strain); test: crystal structure

Question: Does B1 bind?
Answer: binds

Question: Does B2 bind?
Answer: binds

Question: Does B3 bind?
Answer: binds

Question: Does B4 bind?
Answer: binds
